The text below walks through data of paper PMC4220118, “Exploring nicotinamide cofactor promiscuity in NAD(P)H-dependent flavin containing monooxygenases (FMOs) using natural variation within the phosphate binding loop. Structure and activity of FMOs from Cellvibrio sp. BR and Pseudomonas stutzeri NF13” (Journal of Molecular Catalysis. B, Enzymatic, 2014).

One series concerns the target T1, PSFMO (Stutzerimonas stutzeri, UniProt M2V3J0).
T1 construct: gene B381_09411; 358 aa; codon-optimised gene in pET-YSBL-LIC-3C, N-terminal 3C-cleavable His6 tag (crystals: tag cleaved, linker Gly-2 Pro-1 Ala0 seen), E. coli BL21(DE3)
T1 sequence (M2V3J0 1-358): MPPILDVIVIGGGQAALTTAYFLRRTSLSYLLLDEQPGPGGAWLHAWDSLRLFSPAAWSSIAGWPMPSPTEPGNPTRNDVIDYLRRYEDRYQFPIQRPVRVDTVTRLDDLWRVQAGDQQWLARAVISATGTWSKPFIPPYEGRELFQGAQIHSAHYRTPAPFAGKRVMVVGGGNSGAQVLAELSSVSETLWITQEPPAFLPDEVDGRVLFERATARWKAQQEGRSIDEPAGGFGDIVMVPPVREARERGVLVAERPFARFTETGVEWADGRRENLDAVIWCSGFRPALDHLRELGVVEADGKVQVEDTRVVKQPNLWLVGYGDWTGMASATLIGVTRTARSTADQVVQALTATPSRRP
Put plainly: X-ray crystal structure, […] Å. It is filed as binding. The note with it: oxidised FAD; co-purified; tag-cleaved protein.

A further series addresses T2, CFMO (Cellvibrio sp. BR, UniProt I3IEE4).
T2 construct: gene O59_000450; 361 aa; codon-optimised gene in pET-YSBL-LIC-3C, N-terminal 3C-cleavable His6 tag (crystals: non-cleaved protein), E. coli BL21(DE3); dimer
T2 sequence (I3IEE4 1-361): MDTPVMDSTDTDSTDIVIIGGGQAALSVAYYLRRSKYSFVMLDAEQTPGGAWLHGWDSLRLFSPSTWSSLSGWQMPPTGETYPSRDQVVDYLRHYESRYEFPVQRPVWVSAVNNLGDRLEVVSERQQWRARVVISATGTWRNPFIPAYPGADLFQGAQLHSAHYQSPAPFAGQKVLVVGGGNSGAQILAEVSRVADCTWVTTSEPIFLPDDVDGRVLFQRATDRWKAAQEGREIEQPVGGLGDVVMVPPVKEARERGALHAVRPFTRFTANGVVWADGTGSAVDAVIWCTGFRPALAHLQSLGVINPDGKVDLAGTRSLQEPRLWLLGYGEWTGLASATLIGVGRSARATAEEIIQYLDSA
Put plainly: X-ray crystal structure, […] Å. The format is binding. Particulars: oxidised FAD at domain interface; co-purified; non-cleaved His-tagged protein.

Substrate in series [1]: NC(=O)C1=CN([C@@H]2O[C@H](COP(=O)(O)OP(=O)(O)OC[C@H]3O[C@@H](n4cnc5c(N)ncnc54)[C@H](OP(=O)(O)O)[C@@H]3O)[C@@H](O)[C@H]2O)C=CC1
Kind of series: purified protein. Particulars: Tris-HCl pH 7.5, 3.9 nmol enzyme in 1 mL, NADPH 10-100 μM. It is filed as biochemical, Cellvibrio sp. BR.

Substrate in series [2]: NC(=O)C1=CN([C@@H]2O[C@H](COP(=O)(O)OP(=O)(O)OC[C@H]3O[C@@H](n4cnc5c(N)ncnc54)[C@H](O)[C@@H]3O)[C@@H](O)[C@H]2O)C=CC1
Kind of series: purified protein. The format is biochemical, Cellvibrio sp. BR. Particulars: Tris-HCl pH 7.5, 3.9 nmol enzyme in 1 mL, NADH 10-100 μM.

Substrate in series [3]: NC(=O)C1=CN([C@@H]2O[C@H](COP(=O)(O)OP(=O)(O)OC[C@H]3O[C@@H](n4cnc5c(N)ncnc54)[C@H](OP(=O)(O)O)[C@@H]3O)[C@@H](O)[C@H]2O)C=CC1
Put plainly: purified protein. It is filed as biochemical, Stutzerimonas stutzeri. The note with it: Tris-HCl pH 7.5, 3.9 nmol enzyme in 1 mL, NADPH 10-100 μM.

Substrate in series [4]: NC(=O)C1=CN([C@@H]2O[C@H](COP(=O)(O)OP(=O)(O)OC[C@H]3O[C@@H](n4cnc5c(N)ncnc54)[C@H](O)[C@@H]3O)[C@@H](O)[C@H]2O)C=CC1
Kind of series: purified protein. The format is biochemical, Stutzerimonas stutzeri. Particulars: Tris-HCl pH 7.5, 3.9 nmol enzyme in 1 mL, NADH 10-100 μM.

Series [5] concerns the molecule itself. Put plainly: SEC; size-exclusion studies of PSFMO (not shown). A general note: In gel filtration, larger molecules generally elute earlier.

As for `Cc1cc2nc3c(=O)[nH]c(=O)nc-3n(C[C@H](O)[C@H](O)[C@H](O)COP(=O)(O)OP(=O)(O)OC[C@H]3O[C@@H](n4cnc5c(N)ncnc54)[C@H](O)[C@@H]3O)c2cc1C` [FAD], the “X-ray crystal structure, 1.83 Å” value on PSFMO is “FAD was again clearly visible in the omit map after building and refinement”. In addition, the “X-ray crystal structure, 2.39 Å” value on CFMO was “This was successfully modelled and refined as FAD in the flat, oxidised form”.

B1: CFMO (Cellvibrio sp. BR) (protein)
chain: MDTPVMDSTDTDSTDIVIIGGGQAALSVAYYLRRSKYSFVMLDAEQTPGGAWLHGWDSLRLFSPSTWSSLSGWQMPPTGETYPSRDQVVDYLRHYESRYEFPVQRPVWVSAVNNLGDRLEVVSERQQWRARVVISATGTWRNPFIPAYPGADLFQGAQLHSAHYQSPAPFAGQKVLVVGGGNSGAQILAEVSRVADCTWVTTSEPIFLPDDVDGRVLFQRATDRWKAAQEGREIEQPVGGLGDVVMVPPVKEARERGALHAVRPFTRFTANGVVWADGTGSAVDAVIWCTGFRPALAHLQSLGVINPDGKVDLAGTRSLQEPRLWLLGYGEWTGLASATLIGVGRSARATAEEIIQYLDSA
notes: 361 aa; codon-optimised gene in pET-YSBL-LIC-3C, N-terminal 3C-cleavable His6 tag (crystals: non-cleaved protein), E. coli BL21(DE3); dimer
For the molecule B1, in the series “purified protein [1]”, the Michaelis-Menten constant (Km) amounted to 5 ± 1 µM, the turnover number (kcat) came to 0.02 s⁻¹ and the kcat/Km was 4000 M⁻¹ s⁻¹. Further, in the series “purified protein [2]”, the Michaelis-Menten constant (Km) came out at 3 ± 1 µM, the turnover number (kcat) stood at 0.02 s⁻¹ and the specificity constant (kcat/Km) was found to be 6670 M⁻¹ s⁻¹.

B2: Flavin-containing monooxygenase from Pseudomonas stutzeri NF13 (PSFMO), as used in size-exclusion studies (enzyme, UniProt M2V3J0 1-358, looked up)
chain: MPPILDVIVIGGGQAALTTAYFLRRTSLSYLLLDEQPGPGGAWLHAWDSLRLFSPAAWSSIAGWPMPSPTEPGNPTRNDVIDYLRRYEDRYQFPIQRPVRVDTVTRLDDLWRVQAGDQQWLARAVISATGTWSKPFIPPYEGRELFQGAQIHSAHYRTPAPFAGKRVMVVGGGNSGAQVLAELSSVSETLWITQEPPAFLPDEVDGRVLFERATARWKAQQEGRSIDEPAGGFGDIVMVPPVREARERGVLVAERPFARFTETGVEWADGRRENLDAVIWCSGFRPALDHLRELGVVEADGKVQVEDTRVVKQPNLWLVGYGDWTGMASATLIGVTRTARSTADQVVQALTATPSRRP
notes: PSFMO, putative FMO from Pseudomonas stutzeri NF13, Uniprot M2V3J0, 358 amino acids; synthetic gene amplified with primers from the ATG start codon to the stop codon; Same construct as m2
Consider B2, for which, in “purified protein [3]”, the Michaelis-Menten constant (Km) turned out to be 17 ± 2.0 µM, the catalytic constant (kcat) turned out to be 0.04 s⁻¹ and the catalytic efficiency (kcat/Km) was 2350 M⁻¹ s⁻¹. In “purified protein [4]”, the Km amounted to 16 ± 2 µM, the kcat came to 0.03 s⁻¹ and the kcat/Km turned out to be 1880 M⁻¹ s⁻¹. In addition, in series [5], the “stoichiometry N” value turned out to be 2.

Broadly, the Km is the concentration of substrate that gives half-maximal velocity. The term kcat denotes the number of substrate molecules converted per active site and unit of time at saturation. In general, kcat/Km refers to the second-order rate constant that governs catalysis at low substrate concentration. A word on the stoichiometry N: it is a count of units in the complex or per binding partner.
